Measurements: patent publication US7662400

How the values were obtained:
[1] = system: T1, fluorescent quenched PAR-2 peptide substrate Abz-SKGRSLIGK(Dnp)D
T1 sequence: SKGRSLIGK

[2] = molecular target: protease-activated receptor 2 (PAR-2) on human eosinophils / BEAS-2B airway epithelial cells (UniProt P55085)
Chain of protease-activated receptor 2 (PAR-2) on human eosinophils / BEAS-2B airway epithelial cells (P55085 whole entry, looked up): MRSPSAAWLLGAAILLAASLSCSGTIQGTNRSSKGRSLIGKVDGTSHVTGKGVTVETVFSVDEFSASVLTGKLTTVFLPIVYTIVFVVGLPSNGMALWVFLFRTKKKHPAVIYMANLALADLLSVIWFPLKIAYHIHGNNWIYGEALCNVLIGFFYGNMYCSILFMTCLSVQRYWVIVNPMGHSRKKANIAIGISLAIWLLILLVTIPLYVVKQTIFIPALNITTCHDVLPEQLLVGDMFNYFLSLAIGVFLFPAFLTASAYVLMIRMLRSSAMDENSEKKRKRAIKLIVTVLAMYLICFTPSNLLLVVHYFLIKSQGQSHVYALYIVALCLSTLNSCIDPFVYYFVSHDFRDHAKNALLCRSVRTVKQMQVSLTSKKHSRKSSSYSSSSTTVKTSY

| Substance | in vitro assay for PAR-2 cleavage and activation (fluorescent quenched peptide substrate) [1] | deglycosylation and downregulation of PAR-2 in eosinophils (Western blot) [2] |
| --- | --- | --- |
| trypsin | trypsin, as positive control, clearly cleaved this peptide | – |
| Aspergillus xylanase | – | The 41 kDa and 70 kDa PAR-2 molecules were deglycosylated by xylanase temporarily |
